Like-named read-outs stand apart in the source and are kept apart here.
Test: In vivo pharmacokinetic (PK) studies in rats
Parameters: species or system Sprague-Dawley rats
Conditions: for level at time molar at 24 h: read-out: Rat PK C24; for AUC(0-inf): read-out: Rat PK AUC Total
Protocol: […] Blood samples were collected via jugular vein at different time points out to 72 hours. Blood samples were allowed to coagulate at room temperature (30-60 m) and then centrifuged (1500-2000) at 4° C. to obtain serum. After centrifugation serum samples were transferred to 96 well plates and stored at −80° C. until bioanalysis. Relaxin concentrations were measured from serum by ELISA.
Relaxin concentration-time profiles from individual animals were used for analysis. Pharmacokinetic parameters were calculated by non-compartmental methods using Phoenix WinNonlin (version 6.4) or Kinetica (version 5). Mean pharmacokinetic parameters Cmax, AUCinf, C24 and half-life were reported (Table 4). Table 4. In vivo PK data (abbreviations as in Table 3).

[1] = rats, SC dose 1.0 mg/kg, adjusted from 0.5 mpk
[2] = rat, male Sprague-Dawley rats, single SC dose 1.0 mg/kg, serum ELISA

SMILES	Rat PK AUC Total [1] [µM·h]	level at time molar at 24 h [1] [nM]	AUC(0-inf) [2] [µM·h]	level at time molar at 24 h [2] [nM]
CC[C@H](C)[C@@H]1NC(=O)[C@H](C)NC(=O)[C@H]([C@@H](C)CC)NC(=O)[C@H](CCC(N)=O)NC(=O)[C@H](C)NC(=O)[C@H](CCCNC(=N)N)NC(=O)[C@H](C(C)C)NC(=O)[C@H](CC(C)C)NC(=O)[C@H](CCC(=O)O)NC(=O)[C@H](CCCNC(=N)N)NC(=O)CNC(=O)[C@@H](NC(=O)[C@H](CC(C)C)NC(=O)[C@H](CCCCN)NC(=O)[C@@H](NC(=O)[C@@H](NC(=O)[C@H](CCC(=O)O)NC(=O)[C@H](CCC(=O)O)NC(=O)[C@H](CCSC)NC(=O)[C@H](Cc2c[nH]c3ccccc23)NC(=O)[C@H](CO)NC(=O)[C@H](C)N)C(C)C)[C@@H](C)CC)CSSC[C@@H]2NC(=O)[C@@H](NC(=O)[C@H](CCCCN)NC(=O)[C@H](CC(N)=O)NC(=O)[C@H](C)NC(=O)[C@H](CC(C)C)NC(=O)[C@H](C)NC(=O)[C@H](CO)NC(=O)[C@H](Cc3ccc(O)cc3)NC(=O)[C@H](CC(C)C)NC(=O)[C@@H](N)Cc3ccc(C(C)=NOCCNC(=O)[C@H](CCC(=O)O)NC(=O)[C@H](CCC(=O)O)NC(=O)[C@H](CCC(=O)O)NC(=O)CNC(=O)CNC(=O)CNC(=O)CC[C@H](NC(=O)CCCCCCCCCCCCCC(=O)O)C(=O)O)cc3)CSSC[C@H](NC(=O)CNC(=O)[C@H](C(C)C)NC(=O)[C@H](Cc3c[nH]cn3)NC2=O)C(=O)N[C@@H]([C@@H](C)O)C(=O)N[C@@H](CCCCN)C(=O)N[C@@H](CCCNC(=N)N)C(=O)N[C@@H](CO)C(=O)N[C@@H](CC(C)C)C(=O)N[C@@H](C)C(=O)N[C@@H](CCCNC(=N)N)C(=O)N[C@@H](Cc2ccccc2)C(=O)N[C@H](C(=O)O)CSSC[C@@H](C(=O)NCC(=O)N[C@@H](CCSC)C(=O)N[C@@H](CO)C(=O)N[C@H](C(=O)N[C@@H](Cc2c[nH]c3ccccc23)C(=O)N[C@@H](CO)C(=O)O)[C@@H](C)O)NC1=O [AQ1-EEEGGG-Glu^γ-C14-COOH]	2.137	5.2	–	–
CCCCCCCCCCCCCCCC(=O)N[C@@H](CCC(=O)NCC(=O)NCC(=O)NCC(=O)N[C@@H](CCC(=O)O)C(=O)N[C@@H](CCC(=O)O)C(=O)N[C@@H](CCC(=O)O)C(=O)NCCON=C(C)c1ccc(C[C@H](N)C(=O)N[C@@H](CC(C)C)C(=O)N[C@@H](Cc2ccc(O)cc2)C(=O)N[C@@H](CO)C(=O)N[C@@H](C)C(=O)N[C@@H](CC(C)C)C(=O)N[C@@H](C)C(=O)N[C@@H](CC(N)=O)C(=O)N[C@@H](CCCCN)C(=O)N[C@H]2CSSC[C@@H]3NC(=O)CNC(=O)[C@H](C(C)C)NC(=O)[C@H](Cc4c[nH]cn4)NC(=O)[C@H](CSSC[C@H](NC(=O)[C@H](CC(C)C)NC(=O)[C@H](CCCCN)NC(=O)[C@@H](NC(=O)[C@@H](NC(=O)[C@H](CCC(=O)O)NC(=O)[C@H](CCC(=O)O)NC(=O)[C@H](CCSC)NC(=O)[C@H](Cc4c[nH]c5ccccc45)NC(=O)[C@H](CO)NC(=O)[C@H](C)N)C(C)C)[C@@H](C)CC)C(=O)NCC(=O)N[C@@H](CCCNC(=N)N)C(=O)N[C@@H](CCC(=O)O)C(=O)N[C@@H](CC(C)C)C(=O)N[C@@H](C(C)C)C(=O)N[C@@H](CCCNC(=N)N)C(=O)N[C@@H](C)C(=O)N[C@@H](CCC(N)=O)C(=O)N[C@@H]([C@@H](C)CC)C(=O)N[C@@H](C)C(=O)N[C@@H]([C@@H](C)CC)C(=O)N[C@H](C(=O)NCC(=O)N[C@@H](CCSC)C(=O)N[C@@H](CO)C(=O)N[C@H](C(=O)N[C@@H](Cc4c[nH]c5ccccc45)C(=O)N[C@@H](CO)C(=O)O)[C@@H](C)O)CSSC[C@@H](C(=O)O)NC(=O)[C@H](Cc4ccccc4)NC(=O)[C@H](CCCNC(=N)N)NC(=O)[C@H](C)NC(=O)[C@H](CC(C)C)NC(=O)[C@H](CO)NC(=O)[C@H](CCCNC(=N)N)NC(=O)[C@H](CCCCN)NC(=O)[C@H]([C@@H](C)O)NC3=O)NC2=O)cc1)C(=O)O [AQ1-EEEGGG-Glu^γ-C15-CH3]	–	–	0.37	0.89
CC[C@H](C)[C@@H]1NC(=O)[C@H](C)NC(=O)[C@H]([C@@H](C)CC)NC(=O)[C@H](CCC(N)=O)NC(=O)[C@H](C)NC(=O)[C@H](CCCNC(=N)N)NC(=O)[C@H](C(C)C)NC(=O)[C@H](CC(C)C)NC(=O)[C@H](CCC(=O)O)NC(=O)[C@H](CCCNC(=N)N)NC(=O)CNC(=O)[C@@H](NC(=O)[C@H](CC(C)C)NC(=O)[C@H](CCCCN)NC(=O)[C@@H](NC(=O)[C@@H](NC(=O)[C@H](CCC(=O)O)NC(=O)[C@H](CCC(=O)O)NC(=O)[C@H](CCSC)NC(=O)[C@H](Cc2c[nH]c3ccccc23)NC(=O)[C@H](CO)NC(=O)[C@H](C)N)C(C)C)[C@@H](C)CC)CSSC[C@@H]2NC(=O)[C@@H](NC(=O)[C@H](CCCCN)NC(=O)[C@H](CC(N)=O)NC(=O)[C@H](C)NC(=O)[C@H](CC(C)C)NC(=O)[C@H](C)NC(=O)[C@H](CO)NC(=O)[C@H](Cc3ccc(O)cc3)NC(=O)[C@H](CC(C)C)NC(=O)[C@@H](N)Cc3ccc(C(C)=NOCCNC(=O)[C@H](CCC(=O)O)NC(=O)[C@H](CCC(=O)O)NC(=O)[C@H](CCC(=O)O)NC(=O)CNC(=O)CNC(=O)CNC(=O)CC[C@H](NC(=O)CCCCCCCCCCCCCCC(=O)O)C(=O)O)cc3)CSSC[C@H](NC(=O)CNC(=O)[C@H](C(C)C)NC(=O)[C@H](Cc3c[nH]cn3)NC2=O)C(=O)N[C@@H]([C@@H](C)O)C(=O)N[C@@H](CCCCN)C(=O)N[C@@H](CCCNC(=N)N)C(=O)N[C@@H](CO)C(=O)N[C@@H](CC(C)C)C(=O)N[C@@H](C)C(=O)N[C@@H](CCCNC(=N)N)C(=O)N[C@@H](Cc2ccccc2)C(=O)N[C@H](C(=O)O)CSSC[C@@H](C(=O)NCC(=O)N[C@@H](CCSC)C(=O)N[C@@H](CO)C(=O)N[C@H](C(=O)N[C@@H](Cc2c[nH]c3ccccc23)C(=O)N[C@@H](CO)C(=O)O)[C@@H](C)O)NC1=O [AQ1-EEEGGG-Glu^γ-C15-COOH]	–	–	3.55	22
CC[C@H](C)[C@@H]1NC(=O)[C@H](C)NC(=O)[C@H]([C@@H](C)CC)NC(=O)[C@H](CCC(N)=O)NC(=O)[C@H](C)NC(=O)[C@H](CCCNC(=N)N)NC(=O)[C@H](C(C)C)NC(=O)[C@H](CC(C)C)NC(=O)[C@H](CCC(=O)O)NC(=O)[C@H](CCCNC(=N)N)NC(=O)CNC(=O)[C@@H](NC(=O)[C@H](CC(C)C)NC(=O)[C@H](CCCCN)NC(=O)[C@@H](NC(=O)[C@@H](NC(=O)[C@H](CCC(=O)O)NC(=O)[C@H](CCC(=O)O)NC(=O)[C@H](CCSC)NC(=O)[C@H](Cc2c[nH]c3ccccc23)NC(=O)[C@H](CO)NC(=O)[C@H](C)N)C(C)C)[C@@H](C)CC)CSSC[C@@H]2NC(=O)[C@@H](NC(=O)[C@H](CCCCN)NC(=O)[C@H](CC(N)=O)NC(=O)[C@H](C)NC(=O)[C@H](CC(C)C)NC(=O)[C@H](C)NC(=O)[C@H](CO)NC(=O)[C@H](Cc3ccc(O)cc3)NC(=O)[C@H](CC(C)C)NC(=O)[C@@H](N)Cc3ccc(C(C)=NOCCNC(=O)CNC(=O)[C@H](CCC(=O)O)NC(=O)[C@@H](NC(=O)CNC(=O)[C@H](CO)NC(=O)[C@H](CO)NC(=O)CNC(=O)[C@H](CCC(=O)O)NC(=O)CNC(=O)[C@@H](NC(=O)CC[C@H](NC(=O)CCCCCCCCCCCCC(=O)O)C(=O)O)[C@@H](C)O)[C@@H](C)O)cc3)CSSC[C@H](NC(=O)CNC(=O)[C@H](C(C)C)NC(=O)[C@H](Cc3c[nH]cn3)NC2=O)C(=O)N[C@@H]([C@@H](C)O)C(=O)N[C@@H](CCCCN)C(=O)N[C@@H](CCCNC(=N)N)C(=O)N[C@@H](CO)C(=O)N[C@@H](CC(C)C)C(=O)N[C@@H](C)C(=O)N[C@@H](CCCNC(=N)N)C(=O)N[C@@H](Cc2ccccc2)C(=O)N[C@H](C(=O)O)CSSC[C@@H](C(=O)NCC(=O)N[C@@H](CCSC)C(=O)N[C@@H](CO)C(=O)N[C@H](C(=O)N[C@@H](Cc2c[nH]c3ccccc23)C(=O)N[C@@H](CO)C(=O)O)[C@@H](C)O)NC1=O [AQ1-GETGSSGEGT-Glu^γ-C13-COOH]	–	–	1.11	0.28

Source: patent US12097241B2, “Methods of treating kidney failure, and/or improving or stablizing renal function using modified relaxin polypeptides” (BRISTOL-MYERS SQUIBB COMPANY, priority 2017, dated 2024)
